Test results published in article doi:10.1101/364463 (bioRxiv, 2019).
Substitutions are numbered along the chain they refer to.

Assays:
Experiment in all cases: pull-down
GST-PI31-S168E = biological target: T1, GST-PI31-S168E (Drosophila, UniProt Q9V637 1-270, S168E)
T1 sequence: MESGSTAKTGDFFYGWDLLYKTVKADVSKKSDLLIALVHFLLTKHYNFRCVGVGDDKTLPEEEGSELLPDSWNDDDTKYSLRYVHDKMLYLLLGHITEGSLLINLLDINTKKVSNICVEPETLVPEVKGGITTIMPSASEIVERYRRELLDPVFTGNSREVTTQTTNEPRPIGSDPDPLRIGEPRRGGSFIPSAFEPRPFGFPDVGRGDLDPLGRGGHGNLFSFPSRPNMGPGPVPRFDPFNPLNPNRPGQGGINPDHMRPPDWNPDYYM

GST-PI31-S168D = biological target: T2, GST-PI31-S168D (Drosophila, UniProt Q9V637 1-270, S168D)
T2 sequence: T1 sequence with E168D

GST-PI31-WT = biological target: T3, GST-PI31-WT (Drosophila, UniProt Q9V637 1-270)
T3 sequence: T1 sequence with E168S

Measured: binding result

B1: FLAG-dDYNLL1 (recombinant, E. coli) (natural protein)
chain: MSDRKAVIKNADMSEEMQQDAVDCATQALEKYNIEKDIAAYIKKEFDKKYNPTWHCIVGRNFGSYVTHETRHFIYFYLGQVAILLFKSG
binds: GST-PI31-S168E | GST-PI31-S168D | GST-PI31-WT
